Data reported in publication PMC3855555.

Columns and labels:
Assay in all cases: pyrophosphate release, enzyme-coupled colorimetric assay
Assay type in all cases: biochemical, Mycolicibacterium smegmatis
Details in all cases: 20 mM Tris-HCl pH 7.5, 5 mM MgSO4, 100 mM NaCl, 37°C
[1] = substrate: O=Cc1cn([C@H]2C[C@H](O)[C@@H](COP(=O)(O)OP(=O)(O)OP(=O)(O)O)O2)c(=O)[nH]c1=O
[2] = substrate: Nc1nc(=O)n([C@H]2C[C@H](O)[C@@H](COP(=O)(O)OP(=O)(O)OP(=O)(O)O)O2)cc1O
[3] = substrate: Nc1nc(O)nc2c1ncn2[C@H]1C[C@H](O)[C@@H](COP(=O)(O)OP(=O)(O)OP(=O)(O)O)O1

B1: Msm MazG (Mycolicibacterium smegmatis MC2 155) (protein)
chain: MIVVLVDPRRPALVPVDAVEFLTGDVQYTEEMPVKVPWSLPSARPAYDGEDAPVLLSSDPEHPVVKARLAAGDRLIAAPEPQPGERLVDAVALMDKLRTSGPWESEQTHDSLRRYLLEETYELFDAVRSGNADELREELGDVLLQVLFHARIAEDAPHHPFSIDDVADALVRKLGNRVPAVLAGESISLDEQLAQWEERKAQEKKVKARASSMDDVPTGQPALALAQKVLARVSQAGLPAELIPASLTSVSVSADTDSENELRTAVLEFMDTVREVEAAVAAGRRGEDVPEELDVAPLGVISEDEWRAYWPGAESSASEAEPEE
notes: heterologously expressed, purified to nearly SDS-PAGE homogeneity; strain given for the bacteria, not for the protein
[1]
  Km: 434 ± 82 µM
  kcat: 1 s⁻¹
[2]
  Km: 5.6 ± 2.2 µM
  kcat: 0.013 s⁻¹
[3]
  Km: 311 µM
